Laboratory results taken from patent US20100075898A1 (BEN GURION UNIVERSITY OF THE NEGEV RESEARCH AND DEVELOPMENT …, published 2010).
One block for each binder: values may come before it.

Tests used:
[1] = biological target: T1, purified rat brain HK-I (Hexokinase 1) (rat, UniProt P05708 1-918); experiment: channel currents of planar-lipid-bilayer-reconstituted mVDAC1 before and after addition of HK-I (28 mU/ml)
T1 construct: Purified from rat brain; immobilised on the SPR chip or added (28 mU/ml) to bilayer-reconstituted VDAC1; also called HK-1
T1 sequence (looked up): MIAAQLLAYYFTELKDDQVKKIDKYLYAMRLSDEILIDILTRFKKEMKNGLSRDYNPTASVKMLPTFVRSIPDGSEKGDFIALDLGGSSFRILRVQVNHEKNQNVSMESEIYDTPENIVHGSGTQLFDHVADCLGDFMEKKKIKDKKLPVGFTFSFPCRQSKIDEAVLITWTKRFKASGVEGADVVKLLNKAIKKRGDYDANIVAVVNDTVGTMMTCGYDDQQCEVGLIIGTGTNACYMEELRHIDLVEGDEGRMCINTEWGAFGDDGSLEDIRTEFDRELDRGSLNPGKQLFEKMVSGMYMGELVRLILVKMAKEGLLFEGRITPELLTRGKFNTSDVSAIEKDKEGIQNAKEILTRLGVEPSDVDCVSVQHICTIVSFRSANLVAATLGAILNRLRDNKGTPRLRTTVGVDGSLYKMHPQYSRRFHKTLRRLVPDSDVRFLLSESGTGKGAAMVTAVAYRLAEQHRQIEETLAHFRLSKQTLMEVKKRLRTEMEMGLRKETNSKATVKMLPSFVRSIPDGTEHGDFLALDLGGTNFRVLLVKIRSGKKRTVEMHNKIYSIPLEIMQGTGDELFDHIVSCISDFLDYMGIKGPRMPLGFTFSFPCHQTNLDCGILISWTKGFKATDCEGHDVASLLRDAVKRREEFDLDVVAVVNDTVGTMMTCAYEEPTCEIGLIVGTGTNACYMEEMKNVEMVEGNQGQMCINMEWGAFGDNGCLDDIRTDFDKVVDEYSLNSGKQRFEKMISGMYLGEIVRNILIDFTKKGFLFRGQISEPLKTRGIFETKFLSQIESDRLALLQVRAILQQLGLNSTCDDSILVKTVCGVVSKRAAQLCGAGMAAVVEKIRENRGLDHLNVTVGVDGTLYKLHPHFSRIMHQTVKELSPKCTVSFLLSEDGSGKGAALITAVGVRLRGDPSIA
Procedure: (§1) The dashed lines indicate the zero and the maximal current levels.
(§2) Briefly, PLB were prepared from soybean asolectin dissolved in n-decane (50 mg/ml) in a chamber containing 10 mM Hepes/KOH, pH 7.4 and 0.5 or 1M NaCl (cis/trans). Only PLBs with a resistance greater than 100 GΩ were used. Purified VDAC (about 1 ng) was added to the chamber defined as the cis side. After insertion of one or more channels into the PLB, excess protein was removed by perfusion of the cis chamber with 20 volumes of a same solution. Currents were recorded under voltage-clamp mode using a Bilayer Clamp amplifier (Warner Instruments, Hamden, Conn.). Currents were measured with respect to the trans side of the membrane (ground). The currents were low-pass filtered at 1 kHz, using a Bessal filter (Frequency Devices, Haverhill, Mass.) and digitized on-line using a Digidata 1200 interface board and pCLAMP 6 software (Axon Instruments). Sigma Plot 2000 scientific software was used for data analyses. Experiments were performed at 23-25° C. […] N-terminal VDAC1 peptides were diluted in running buffer (150 mM NaCl, 0.005% Tween-20, 4% (V/V) DMSO, 10 mM PBS, pH, 7.4) and injected onto the sensor chip at varying concentrations at a flow rate of 40 μl/min at 25° C.

[2] = biological target: T1, purified rat brain HK-I (Hexokinase 1); experiment: channel currents of planar-lipid-bilayer-reconstituted VDAC1 before and after addition of HK-I
Procedure: as §1, §2

[3] = biological target: T2, Δ(1-26)mVDAC1 (N-terminal truncated mouse VDAC1 lacking amino acids 1-26)
T2 chain: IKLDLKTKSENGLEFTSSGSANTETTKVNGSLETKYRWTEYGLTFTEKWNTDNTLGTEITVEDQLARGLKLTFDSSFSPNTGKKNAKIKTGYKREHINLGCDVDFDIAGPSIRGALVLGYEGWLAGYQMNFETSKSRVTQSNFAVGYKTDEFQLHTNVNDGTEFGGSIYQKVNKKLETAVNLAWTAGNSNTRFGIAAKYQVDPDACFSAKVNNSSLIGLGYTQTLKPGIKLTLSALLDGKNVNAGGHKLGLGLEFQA

[4] = biological target: T3, native mVDAC1 (mouse VDAC1)
T3 chain: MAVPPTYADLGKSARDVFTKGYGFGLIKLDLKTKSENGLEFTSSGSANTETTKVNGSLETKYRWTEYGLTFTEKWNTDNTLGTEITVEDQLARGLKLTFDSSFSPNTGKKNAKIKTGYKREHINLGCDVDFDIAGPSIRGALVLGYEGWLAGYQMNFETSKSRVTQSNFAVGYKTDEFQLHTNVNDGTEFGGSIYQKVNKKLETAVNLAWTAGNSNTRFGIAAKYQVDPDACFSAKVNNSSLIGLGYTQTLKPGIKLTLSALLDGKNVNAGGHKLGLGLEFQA

binding result [1]: binds
B1: native mVDAC1 (mouse VDAC1) (other)
chain: T3 chain
notes: Native full-length mouse VDAC1 expressed in porin-less yeast, purified and reconstituted into planar lipid bilayers; also called native VDAC1; bilayer-reconstituted native VDAC1

binding result [2]: no binding (tested: 28 mU/ml)
B2: Δ(1-26)mVDAC1 (N-terminal truncated mouse VDAC1 lacking amino acids 1-26) (other)
chain: T2 chain
notes: Expressed in porin-less yeast, purified and reconstituted into planar lipid bilayers; also called N-terminus truncated protein; truncated version of VDAC1

B3: purified rat brain HK-I (Hexokinase 1) (protein)
chain: T1 sequence (looked up)
channel activity (currents) of bilayer-reconstituted VDAC1 [3]: HK-I had no effect on channel activity of the truncated version of VDAC1
channel activity (currents) of bilayer-reconstituted VDAC1 [4]: addition of HK-I to bilayer-reconstituted native VDAC1 induced the channel to fluctuate between the fully open, sub-conducting state to a stable, long-lived low-conducting state
